# Measurements as given in the supplement of paper PMC9112550, “Optimization of the antimicrobial peptide Bac7 by deep mutational scanning” (BMC Biology, 2022).
# Test system: Escherichia coli TOP10
# Experiment: shrunken log2 fold change of peptide-encoding DNA abundance (4.5 h post-induction vs induction); higher = less antimicrobial activity (less host growth inhibition)
# Conditions: time post-induction: 4.5 h; library: site-saturation at positions 5, 18, 19, 20
# 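Also: peptides expressed intracellularly from a pBAD plasmid library in pooled LB shake-flask culture, induced with 0.3% L-arabinose, DNA abundance read by NGS, three biological replicates, DESeq2 with apeglm shrinkage.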
row,Sequence,shrunken log2 fold change
1,RRIRYRPPRLPRPRPRPVIIPRP,-0.156
2,RRIRKRPPRLPRPRPRPKNYPRP,0.0189
3,RRIRYRPPRLPRPRPRPAQQPRP,0.0788
4,RRIRDRPPRLPRPRPRPRWDPRP,0.196
5,RRIRARPPRLPRPRPRPYGNPRP,-0.0109
6,RRIRPRPPRLPRPRPRPANFPRP,-0.0737
7,RRIRKRPPRLPRPRPRPLRRPRP,0.689
8,RRIRNRPPRLPRPRPRPFSLPRP,-0.0274
9,RRIRARPPRLPRPRPRPTPTPRP,0.968
10,RRIRWRPPRLPRPRPRPCAKPRP,-0.0723
11,RRIRMRPPRLPRPRPRPCWWPRP,0.0436
12,RRIRVRPPRLPRPRPRPTSNPRP,-0.296
13,RRIRERPPRLPRPRPRPCGAPRP,0.469
14,RRIRRRPPRLPRPRPRPMKTPRP,0.0796
15,RRIRDRPPRLPRPRPRPMFVPRP,-0.0355
16,RRIRDRPPRLPRPRPRPSDNPRP,-0.0807
17,RRIRMRPPRLPRPRPRPTSEPRP,0.511
18,RRIRERPPRLPRPRPRPTQKPRP,0.337
19,RRIRDRPPRLPRPRPRPPDMPRP,0.123
20,RRIRNRPPRLPRPRPRPDFKPRP,-0.0167
21,RRIRIRPPRLPRPRPRPYQIPRP,-0.273
22,RRIRERPPRLPRPRPRPRHCPRP,-0.133
23,RRIRLRPPRLPRPRPRPRVKPRP,-0.0432
24,RRIRGRPPRLPRPRPRPSTLPRP,0.152
25,RRIRIRPPRLPRPRPRPVWGPRP,0.0298

row,Sequence,shrunken log2 fold change
1,RRIRMRPPRLPRPRPRPACLPRP,0.236
2,RRIRQRPPRLPRPRPRPMMCPRP,-0.0115
3,RRIRTRPPRLPRPRPRPWGYPRP,-0.0354
4,RRIRARPPRLPRPRPRPPWIPRP,0.38
5,RRIRHRPPRLPRPRPRPKVVPRP,-0.00398
6,RRIRERPPRLPRPRPRPMARPRP,0.116
7,RRIRIRPPRLPRPRPRPWYVPRP,-0.247
8,RRIRYRPPRLPRPRPRPMTGPRP,0.0192
9,RRIRFRPPRLPRPRPRPAMVPRP,-0.149
10,RRIRVRPPRLPRPRPRPAVGPRP,0.186
11,RRIRSRPPRLPRPRPRPILQPRP,0.0824
12,RRIRCRPPRLPRPRPRPKGIPRP,0.0519
13,RRIRHRPPRLPRPRPRPTNWPRP,0.0467
14,RRIRERPPRLPRPRPRPIGYPRP,-0.00962
15,RRIRKRPPRLPRPRPRPWHIPRP,-0.0551
16,RRIRYRPPRLPRPRPRPEHQPRP,-0.464
17,RRIRFRPPRLPRPRPRPGTLPRP,-0.422
18,RRIRHRPPRLPRPRPRPSYFPRP,-0.628
19,RRIRVRPPRLPRPRPRPIDSPRP,-0.0289
20,RRIRDRPPRLPRPRPRPNCTPRP,0.476
21,RRIRWRPPRLPRPRPRPHPTPRP,0.115
22,RRIRFRPPRLPRPRPRPIEHPRP,-0.215
23,RRIRIRPPRLPRPRPRPDNWPRP,-0.128
24,RRIRARPPRLPRPRPRPPVDPRP,0.545
25,RRIRRRPPRLPRPRPRPMHRPRP,0.0514

row,Sequence,shrunken log2 fold change
1,RRIRVRPPRLPRPRPRPLAGPRP,0.334
2,RRIRHRPPRLPRPRPRPRVHPRP,0.0785
3,RRIRRRPPRLPRPRPRPAKGPRP,-0.0594
4,RRIRWRPPRLPRPRPRPLHTPRP,0.0467
5,RRIRMRPPRLPRPRPRPDDWPRP,3.03
6,RRIRQRPPRLPRPRPRPSPRPRP,0.31
7,RRIRERPPRLPRPRPRPTVLPRP,-0.0263
8,RRIRARPPRLPRPRPRPTCHPRP,0.427
9,RRIRIRPPRLPRPRPRPKEKPRP,0.00643
10,RRIRMRPPRLPRPRPRPVRWPRP,1.38
11,RRIRSRPPRLPRPRPRPTQMPRP,0.502
12,RRIRDRPPRLPRPRPRPRMGPRP,0.161
13,RRIRMRPPRLPRPRPRPFKWPRP,-0.0704
14,RRIRVRPPRLPRPRPRPYCGPRP,-0.502
15,RRIRCRPPRLPRPRPRPWAGPRP,0.124
16,RRIRLRPPRLPRPRPRPNPVPRP,0.0363
17,RRIRCRPPRLPRPRPRPCNMPRP,-0.502
18,RRIRMRPPRLPRPRPRPPAIPRP,0.911
19,RRIRNRPPRLPRPRPRPGPPPRP,0.581
20,RRIRWRPPRLPRPRPRPQNHPRP,-0.585
21,RRIRFRPPRLPRPRPRPDNPPRP,-0.0747
22,RRIRSRPPRLPRPRPRPARLPRP,0.0986
23,RRIRFRPPRLPRPRPRPCYQPRP,-0.229
24,RRIRCRPPRLPRPRPRPHLAPRP,-0.0147
25,RRIRSRPPRLPRPRPRPLELPRP,0.12

row,Sequence,shrunken log2 fold change
1,RRIRGRPPRLPRPRPRPQLSPRP,0.0797
2,RRIRDRPPRLPRPRPRPWSEPRP,-0.228
3,RRIRTRPPRLPRPRPRPFHTPRP,-0.932
4,RRIRSRPPRLPRPRPRPILTPRP,-0.125
5,RRIRARPPRLPRPRPRPDTTPRP,0.0242
6,RRIRSRPPRLPRPRPRPGQRPRP,0.0367
7,RRIRYRPPRLPRPRPRPVCQPRP,-0.181
8,RRIRCRPPRLPRPRPRPIKFPRP,-0.159
9,RRIRSRPPRLPRPRPRPKFDPRP,-0.081
10,RRIRKRPPRLPRPRPRPGYEPRP,-0.0888
11,RRIRGRPPRLPRPRPRPGWPPRP,1.18
12,RRIRERPPRLPRPRPRPGKIPRP,0.139
13,RRIRIRPPRLPRPRPRPQRIPRP,-0.536
14,RRIRQRPPRLPRPRPRPPVDPRP,-0.19
15,RRIRERPPRLPRPRPRPMFQPRP,-0.952
16,RRIRMRPPRLPRPRPRPIRKPRP,0.553
17,RRIRKRPPRLPRPRPRPPNLPRP,0.492
18,RRIRVRPPRLPRPRPRPYNCPRP,-0.432
19,RRIRWRPPRLPRPRPRPWETPRP,-0.01
20,RRIRPRPPRLPRPRPRPGRGPRP,0.611
21,RRIRARPPRLPRPRPRPKMWPRP,0.553
22,RRIRMRPPRLPRPRPRPVGNPRP,0.0176
23,RRIRYRPPRLPRPRPRPVYRPRP,-0.158
24,RRIRRRPPRLPRPRPRPRMMPRP,0.351
25,RRIRGRPPRLPRPRPRPKDVPRP,-0.0336

row,Sequence,shrunken log2 fold change
1,RRIRQRPPRLPRPRPRPWWIPRP,-0.185
2,RRIRARPPRLPRPRPRPSHPPRP,-0.0758
3,RRIRYRPPRLPRPRPRPNLMPRP,-0.617
4,RRIRKRPPRLPRPRPRPCGNPRP,0.0169
5,RRIRPRPPRLPRPRPRPQYMPRP,-0.506
6,RRIRKRPPRLPRPRPRPIHNPRP,-0.0348
7,RRIRKRPPRLPRPRPRPAIIPRP,-0.0297
8,RRIRPRPPRLPRPRPRPEDKPRP,0.163
9,RRIRRRPPRLPRPRPRPHWIPRP,0.0716
10,RRIRHRPPRLPRPRPRPDSCPRP,-0.164
11,RRIRRRPPRLPRPRPRPQSGPRP,0.121
12,RRIRDRPPRLPRPRPRPVMEPRP,0.532
13,RRIRNRPPRLPRPRPRPPENPRP,0.181
14,RRIRMRPPRLPRPRPRPEHKPRP,2.5
15,RRIRSRPPRLPRPRPRPLLLPRP,-0.0475
16,RRIRCRPPRLPRPRPRPTSAPRP,0.18
17,RRIRVRPPRLPRPRPRPKIPPRP,0.0285
18,RRIRNRPPRLPRPRPRPMIFPRP,-0.287
19,RRIRGRPPRLPRPRPRPCSGPRP,-0.111
20,RRIRERPPRLPRPRPRPCMQPRP,-0.133
21,RRIRKRPPRLPRPRPRPSIYPRP,-0.353
22,RRIRIRPPRLPRPRPRPLEQPRP,-0.419
23,RRIRGRPPRLPRPRPRPARPPRP,0.63
24,RRIRGRPPRLPRPRPRPLEEPRP,1.76
25,RRIRVRPPRLPRPRPRPQSSPRP,-0.0172

row,Sequence,shrunken log2 fold change
1,RRIRCRPPRLPRPRPRPMGFPRP,-0.103
2,RRIRMRPPRLPRPRPRPGYSPRP,-0.185
3,RRIRHRPPRLPRPRPRPSGEPRP,-0.03
4,RRIRNRPPRLPRPRPRPAICPRP,-0.0274
5,RRIRKRPPRLPRPRPRPYPTPRP,-0.0559
6,RRIRYRPPRLPRPRPRPDKMPRP,-0.0477
7,RRIRTRPPRLPRPRPRPTCPPRP,-0.0738
8,RRIRWRPPRLPRPRPRPWWSPRP,0.173
9,RRIRHRPPRLPRPRPRPAECPRP,-0.696
10,RRIRARPPRLPRPRPRPNQIPRP,0.0775
11,RRIRYRPPRLPRPRPRPAPQPRP,0.416
12,RRIRMRPPRLPRPRPRPHTYPRP,-0.209
13,RRIRERPPRLPRPRPRPPWYPRP,-0.227
14,RRIRARPPRLPRPRPRPHSLPRP,0.314
15,RRIRARPPRLPRPRPRPMCGPRP,0.121
16,RRIRQRPPRLPRPRPRPVYFPRP,-0.446
17,RRIRHRPPRLPRPRPRPRCQPRP,0.219
18,RRIRDRPPRLPRPRPRPGRMPRP,0.174
19,RRIRMRPPRLPRPRPRPWPQPRP,0.729
20,RRIRCRPPRLPRPRPRPCNNPRP,-0.31
21,RRIRCRPPRLPRPRPRPWESPRP,0.0539
22,RRIRPRPPRLPRPRPRPQYAPRP,-0.103
23,RRIRIRPPRLPRPRPRPMDYPRP,-0.00141
24,RRIRCRPPRLPRPRPRPCLTPRP,-0.17
25,RRIRKRPPRLPRPRPRPHLIPRP,0.108
